Source: US20150004129A1

Legend:
[1] = molecular target: Flag-CD40L (AA 116 to 261) (human) (UniProt P29965); assay: competitive ELISA; receptor/Fc coated, sCD40L at constant concentration, competitor titrated
[2] = molecular target: Flag-CD40L (AA 116 to 261) (human) (UniProt P29965); assay: competitive ELISA; receptor/Fc coated, sCD40L at constant concentration, competitor titrated with 1 ug/ml protein A
[3] = molecular target: Flag-FasL (soluble FasL) (UniProt P48023); assay: BIAcore; Flag-FasL captured on immobilised M2 anti-Flag antibody, receptor fusion protein injected
UniProt P48023, sequence (P48023 other isoform, or with tags, fused parts or gaps): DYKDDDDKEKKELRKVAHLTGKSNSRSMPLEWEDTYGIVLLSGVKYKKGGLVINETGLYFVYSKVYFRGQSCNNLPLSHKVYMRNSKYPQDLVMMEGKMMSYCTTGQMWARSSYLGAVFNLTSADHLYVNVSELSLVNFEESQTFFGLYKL

[4] = molecular target: Flag-FasL (soluble FasL) (UniProt P48023); assay: cell-based or functional assay
[5] = molecular target: Flag-FasL (soluble FasL) (UniProt P48023); assay: BIAcore; Flag-FasL captured on immobilised M2 anti-Flag antibody
[6] = molecular target: Flag-TRAIL (UniProt P50591); assay: BIAcore; 7 ul of 2.5 ug/ml Flag-TRAIL over immobilised M2 antibody
[7] = molecular target: Flag-FasL (soluble FasL) (UniProt P48023); assay: BIAcore; 7 ul of 2.5 ug/ml Flag-FasL over immobilised M2 antibody

UniProt P29965, sequence (P29965 other isoform, or with tags, fused parts or gaps): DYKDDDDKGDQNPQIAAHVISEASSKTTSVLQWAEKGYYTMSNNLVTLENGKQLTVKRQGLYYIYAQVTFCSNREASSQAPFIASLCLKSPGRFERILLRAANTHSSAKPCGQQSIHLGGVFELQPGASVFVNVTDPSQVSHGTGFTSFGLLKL

CD40:COMP fusion protein (from UniProt P25942 1-193) (receptor)
fold increase in the affinity against CD40:Fc [1]: 30 fold

CD40:Fc cross-linked with protein A (from UniProt P25942 1-193)
fold increase in the affinity against CD40:Fc [2]: 8 fold

Fas:COMP fusion protein (from UniProt P25445 26-170) (receptor)
Kd [3]: 0.77 nM | inhibitory activity against sFasL-mediated lysis, fold against Fas:Fc [4]: 10 to 20 fold | fold lower dissociation constant than Fas:Fc [5]: 8 to 9 fold

Fas:Fc fusion protein (from UniProt P25445 26-170)
protection of A20 cells exposed to a lethal dose of soluble FasL (cytotoxicity test) [4]: < 50%

M2 anti-Flag monoclonal antibody
units bound (BIAcore) [6]: 100 to 150 units | units bound (BIAcore) [7]: 100 to 150 units
